Data as given in the DeepSol protein solubility set.

Assay: soluble on expression in E. coli; label from the status in PepcDB or PDB records

Row | Sequence | soluble on expression in E. coli
1 | MKCRSKISLIAASLWLAAFSAQALEAKLKPEDLPLLVPEAQHATAAKRVTSRFTRSHYKQFNLDDQFSQAMFERYLEMLDYSRNIFTQADIDSFKAWSLQLDDQLKAGDNQIAYDLYNLSMEKRFERFQYALSLLDQEMTFDADESIELDRTKSPWPKDLKEINELWRQRVKYDALSLKLAGKEWPEIKETLDKRYNNAIKRLTQTKSEDVFQTYMNAFAREVDPHTSYLSPRNAEQFQSEMNLSLEGIGAVLQMTDDYTIIRSLVAGGPAALSKQLGEGDRIIGVGQEGEDVVDVVGWRLDDVVQLIKGPKGSKVKLLVLPEGKDAKSHVVTIVRDKIRLEDRAVKSEVIEKAGKKIGVLEVPSFYVGLAQDTEKLLAELKAKKVDGIIVDLRNNGGGALTEATALSGLFITSGPVVQVRDSYGRVNVNSDTDGSISYSGPMTVLINRYSASASEIFAAAMQDYGRAIILGENSFGKGTVQQHRSLNHIYDLFDKELGYVQYTIQKFYRIDGGSTQNKGVVPDIAYPTAIAPSETGESVEDNALPWDSIDKAKYERLNNFNTIIASLEAKHQQRVANDLEFGFIEQDIAKYRAEKDDNLLSLNEKVRKEESAKADEERLARINQRQKALGKSTYASLQDIPKDYEAPDAYLDESVNIMLDMISR | not soluble
2 | MGSDKIHHHHHHMPLMPTTLCSHAGCNARAVGNGVCRIHKPKAKRQAPNQIKQAEPAKLKRIDHRLSASQRGYDVRWRSARLLFLNDEPLCRHCITQDITKGADVVDHILPHRGNQELFWDQTNWQPLCYPCHSIKTTTVDNKLSDYDIAQLRQGGWGKK | not soluble
3 | MNYHQYYPVDIVNGPGTRCTLFVSGCVHECPGCYNKSTWRVNSGQPFTKAMEDQIINDLNDTRIKRQGISLSGGDPLHPQNVPDILKLVQRIRAECPGKDIWVWTGYKLDELNAAQMQVVDLINVLVDGKFVQDLKDPSLIWRGSSNQVVHHLRLEHHHHHH | soluble
4 | MTGYGSLFERLNGDADKRVGWSREVSAMASVAAHLGKMLSTRAGSVQTLSDYGLPDLNDMRLSLHDSLSQARSAIEGFIEAYEPRLSDVRVVSLPRDNDQLRLAFSIEGLLEVEGFKRQVSFSACLDGSGQVKVS | not soluble
5 | MGSDKIHHHHHHMRLLSQVNLNSLKIVESAARHGNFTRAGEEQFITASAVSQRVKSLEDQLRFKIFQRGGNAVSLTPEGETYVSRVREALERIVAASMEATGQSQEHVLKISVLPTFAARWLFPRLPEFQRRYPDIVMRVSTSYATHEFSTSDFDLEIRYGDGHFNGLPSDLLFREDLTPVCSRKLFHEVLGDKPVSKVEPDDLRHFTLLHSDTCTQNWQSWLGFAGASFVLSETKSIYFDSCMMSYEAANAGMGFAVANRAYMASDIRAEKLVAPFAVHHPNSAGWYFVSPHKCLAARKVLLFKQWVMAEAALTQRQLDSEIRDLATEAV | not soluble
6 | ESNDSGIVVYNAQHENLVKSWVDGFTKDTGIKVTLRNGGDSELGNQLVQEGSASPADVFLTENSPAMVLVDNAKLFAPLDAVTQAQVAQEYRPEHGRWTGIAARSTVFVYNPEKISEAELPKSIMDLAKPEWKGRWAASPSGADFQAIVSAMLELKGEKATLEWLKAMKTNFTAYKGNSTVMKAVNAGQIDGGVIYHYYRFVDQAKTGENSGKTQLHYFKHQDPGAFVSISGGGVLASSKHPKEAQEFVKWITGKSGQDILRTNNAFEYAVGVDAASNPKLVPLKDLDAPKVEPSKLNSKKVVELMTEAGLL | soluble
7 | MTNVCDLTDRKCKPCEGGVPPLEMEEAEKLLKQLEQGWQLADNKISRTFSFKNYYQTMAFVNAIAWVSHREDHHPDMMVGYDWCRVEYMTHAIGGLSENDFICAAKVDMLFKS | not soluble
8 | MGSDKIHHHHHHMKNLLITVFFLSLTLQLSAETGGSNAVIVEKTTASPAEKTPVYWQKMADGMSQALIKHFWGANFKGYENRFYFNYGSDLSNMTTNHYWPQAHAMDVMVDAYMRTGSKQYLNIYPLWWEGAPKFNFAGREEDPWWNVFVDDMEWIALAQIRMFESTKNTKYLKKARQTYDDWVWSTWGPEDEAPWFGGITWKTDVAKSKNACSNGPAALIAARLYNFYDAMGKKAGKPKQAYLNEAIKIYTWEKNNLFDRQTGAVYDSMNGEGKITKWVFSYNSGTFLGAAHELYKITGDKQYLADAVKAANFVIDHLSTNEGVLSDAEGGDGGLFHGIFFRYFVKLINDPALDSANYNKFRDYITHCATVMAEQGVNQKTMLYSGRWRKAPADDESVGLTSHLTGCMLMEAMCVLKHR | not soluble
9 | MEQKTENKWPLQFEVIEEIKQVGRWSAPSWRLGDIHLYEKVNETQDNVSLFERDLEIFRDERTDYRFNLSSQDPKLFFAFENDNDQLTPVMITASQSMIGQYMDGDYLVLSTAMPLPMQAWLEAYIGKHGELLEVRKKKRKGAGRASEQLPK | not soluble
10 | MSLALAVQNTDTIGVVVTDVTDAFFAILVKAVDKVAEAHQKTILIGIGYHHAEKEREAINTLLRKRCSSLVVHSKALSDDELSHYLNTVQGMVIINRVIKGYEHRCVSLDNQKGTYLATEMLIRYGHQHIAYIGSNHAIFDEVERRNGYLAALKDHNYLIIEQAITLNSPDFEGGEKAMIDLLSYNKNLTAVVAYNDSMAAGAISVLNENNISVPSQFSIIGFDDMPIARYLIPKLTTIRYPIDLMATYAAKLALSLTDEKIITPPVVQFNPTLVRRFSVESREGHHHHHH | soluble
11 | MHLLPELASHHAVSIPELLVSRDERQARQHAWLKHHPVPLVSFTVVAPGPIKDSEVTRRIFNHRVTALRALATKQGWQIQEQAALVSASGPEGMLSIAAPARDLKLATIELEHSHPLGRLWDIDVLTPEGEILSRRDYSLRLAAACCASKAQPSARVEKPIN | not soluble
12 | MSTRFRLSLALLTTLVLSACDDAPRFTHAEPGEALSGGSATVRKSDQNAFSMPSANLSPVRRLDFSVGNSFFRSPWVIAPSTTTARDGLGPLFNTNACQNCHIKDGRGHPPEAGDSNAVSMLVRLSIPDDPAYADLIRRNGVLPEPTYGGQLQDMSNPGVAPEGKVRVEYDALTVNFRDGTAVELRQPTLRITQLGYGPMHPETHISARIAPPMIGLGLLEAIADDAILANADPDDKNADGISGRPNWVWDDVQQKVVMGRFGWKAGQPNLNQQNVHAFSGDMGLTTSLRRVDDCTPAQTDCLVAPNGNGPDGEPEVSDNILRLVEFYTRNLGVPARRKVADPQVLAGKNLFFEAGCQQCHTPSFKTRSDAAQPELANQDIRPYSDLLLHDMGEGLADNRTEFQATGREWRTPPLWGLGLTETVSGHTQLLHDGRARNMLEAILWHGGEAQAAQRRVLAFDAEQREALLAFLNSL | not soluble
13 | TDTDEVINLRVVETTDIHTNLMDYDYYKDKPTQKIGLARTATLVKEARAEVTNSVLVDNGDLLQGSPMGDYMADKGIEAGEVHPAYKAMNQLDYDAGNIGNHEFNYGLEFLAESINDADFPYISANVYDAKTKEHYFKPYIIKTHKLKDTAGVEHEIKVGYIGFVPPQIMVWDKKNLEGKVFARDIKETAEELVPQMKAEGADVIVAIPHSGVSTNPYKQGEENSTYYLSEVDGIDAIAFGHSHAVFPGKGFDNLQGIDNENGTINGVAAVMPGRWGSHVGVMDLTLEQKDGKWSVVKGQSEARPIFDKTNQKSLADADKGIVQALEADHKGTRDFVNQ | not soluble
14 | GHMVTMSTEPVSASDKYQKISQLEHILKRPDTYIGSVETQEQLQWIYDEETDCMIEKNVTIVPGLFKIFDEILVNAADNKVRDPSMKRIDVNIHAEEHTIEVKNDGKGIPIEIHNKENIYIPEMIFGHLLTSSNYDDDEKKVTGGRNGYGAKLCNIFSTEFILETADLNVGQKYVQKWENNMSICHPPKITSYKKGPSYTKVTFKPDLTRFGMKELDNDILGVMRRRVYDINGSVRDINVYLNGKSLKIRNFKNYVELYLKSLEKKRQLDNGEDGAAKSDIPTILYERINNRWEVAFAVSDISFQQISFVNSIATTMGGTHVNYITDQIVKKISEILKKKKKKSVKSFQIKNNMFIFINCLIENPAFTSQTKEQLTTRVKDFGSRCEIPLEYINKIMKTDLATRMFEIADANEENALK | soluble
15 | MGSDKIHHHHHHMMTEMQQRAQLHRQIWKIADEVRGAVDGWDFKQYVLGTLFYRFISENFTDYMQAGDSSIDYAAMPDSIITPEIKDDAVKVKGYFIYPGQLFCNIAAEAHQNEELNTKLKEIFTAIESSASGYPSEQGIKGLFDDFDTTSSRLGSTVADKNKRLAAVLKGVAELDFGNFEDHRIDLFGDAYEYLISNYAANAGKSGGEFFTPQSVSKLIARLAVHGQEKVNKIYDPACGSGSLLLQAKKQFDEHIIEEGFFGQEINHTTYNLARMNMFLHNVNYNKFHIELGDTLTNPKLKDSKPFDAVVSNPPYSIDWIGSDDPTLINDDRFAPAGVLAPKSKADFAFILHALNYLSGRGRAAIVSFPGIFYRGGAEQKIRQYLVEGNYVETVIALAPNLFYGTCIAVNILVLSKHKDNTDIQFIDASGFFKKETNNNVLTEEHIAEIVKLFADKADVPHIAQNAAQQTVKDNGYNLAVSSYVEAEDTREVIDIRQLNAEISETVAKIERLRREIDEVIAEIET | not soluble
16 | MHHHHHHSSGVDLGTENLYFQSMGEVVMSQAIQPAHATARGELSAGQLLKWIDTTACLAAEKHAGVSCVTASVDDIQFEETARVGQVITIKAKVTRAFSTSMEISIKVMVQDMLTGIEKLVSVAFSTFVAKPVGKEKIHLKPVTLLTEQDHVEHNLAAERRKVRLQHEDTFNNLMKESSKFDDLIFDEEEGAVSTRGTSVQSIELVLPPHANHHGNTFGGQIMAWMETVATISASRLCWAHPFLKSVDMFKFRGPSTVGDRLVFTAIVNNTFQTCVEVGVRVEAFDCQEWAEGRGRHINSAFLIYNAADDKENLITFPRIQPISKDDFRRYRG | soluble
17 | MGSDKIHHHHHHGQNVHPNLPWIDISGQRERQVTIAPGRPDLYNGHPTTVMMDDHKTILCTWSYGHGGKASFIAESKDAGLTWKNGKTPADWQTMSNCPSIYKLTDKQGKERVFVFSAWPDMPMTYSEDGGKSWSPVRSLNKPCVMAFSSIVKLKNGDYLGLYHRGLNDRDRPPLTLWQSVSHDGGLTWSESVKVGEMEGRSPCEPCVFRAPDGKRLVCVARENNRVGNSLMMFSDDEGTTWSPLQKTPWGLTGDRHVIKFTPDGRMIAVFRDMAPNSPTKGHFVAWVGNYKDLLEGTSGQYKIKLLHSYAGSDCGYPGLEILPDGTIVAITYVKMRPGPEQHSIVGVRFKLEETDKMLY | not soluble
18 | MDRENILKAVKEARSLAKPRNFTQSLDLIINLKELDLSRPENRLKEQVVLPNGRGKEPKIAVIAKGDLAAQAEEMGLTVIRQDELEELGKNKKMAKKIANEHDFFIAQADMMPLVGKTLGPVLGPRGKMPQPVPANANLTPLVERLKKTVLINTRDKPLFHVLVGNEKMSDEELAENIEAILNTVSRKYEKGLYHVKSAYTKLTMGPPAQIEK | soluble
19 | MGHHHHHHHHHHSSGHIEGRHIGSGVEAPEQLEEHGISVYATIPMSEWLDKRTRLRKKNLFSNQQRHRTKNIPFLAVDNPADSAVEAVRALRTSLHFAMMETENNILMITGATPDSGKTFVSSTLAAVIAQSDQKVLFIDADLRRGYSHNLFTVSNEHGLSEYLAGKDELNKVIQHFGKGGFDVITRGQVPPNPSELLMRDRMRQLLEWANDHYDLVIVDTPPMLAVSDAAVVGRSVGTSLLVARFGLNTAKEVSLSMQRLEQAGVNIKGAILNGVIKRASTAYSYGYNYYGYSYSEKE | soluble
